This passage reports Kd results from PMC5290461.

For orientation: Kd means the free concentration of one partner at which half of the binding sites on the other are occupied at equilibrium, for simple one-to-one binding.

The target in this test is GST-β1A-integrin tails (UniProt P05556). The test is described as follows: pull-down; different concentrations of purified His-tagged talin head incubated with glutathione agarose beads preloaded with GST-β1A-integrin tails or GST; lysis buffer A (50 mM Tris-HCl pH 7.4, 1% NP-40, 150 mM NaCl, 1 mM EDTA, protease inhibitors) with 0.5 mg/ml bovine gelatin; bound protein on SDS-PAGE, Coomassie blue, quantified against standards on the same gel; Kd fitted with SigmaPlot.
UniProt P05556, sequence (P05556 21-798): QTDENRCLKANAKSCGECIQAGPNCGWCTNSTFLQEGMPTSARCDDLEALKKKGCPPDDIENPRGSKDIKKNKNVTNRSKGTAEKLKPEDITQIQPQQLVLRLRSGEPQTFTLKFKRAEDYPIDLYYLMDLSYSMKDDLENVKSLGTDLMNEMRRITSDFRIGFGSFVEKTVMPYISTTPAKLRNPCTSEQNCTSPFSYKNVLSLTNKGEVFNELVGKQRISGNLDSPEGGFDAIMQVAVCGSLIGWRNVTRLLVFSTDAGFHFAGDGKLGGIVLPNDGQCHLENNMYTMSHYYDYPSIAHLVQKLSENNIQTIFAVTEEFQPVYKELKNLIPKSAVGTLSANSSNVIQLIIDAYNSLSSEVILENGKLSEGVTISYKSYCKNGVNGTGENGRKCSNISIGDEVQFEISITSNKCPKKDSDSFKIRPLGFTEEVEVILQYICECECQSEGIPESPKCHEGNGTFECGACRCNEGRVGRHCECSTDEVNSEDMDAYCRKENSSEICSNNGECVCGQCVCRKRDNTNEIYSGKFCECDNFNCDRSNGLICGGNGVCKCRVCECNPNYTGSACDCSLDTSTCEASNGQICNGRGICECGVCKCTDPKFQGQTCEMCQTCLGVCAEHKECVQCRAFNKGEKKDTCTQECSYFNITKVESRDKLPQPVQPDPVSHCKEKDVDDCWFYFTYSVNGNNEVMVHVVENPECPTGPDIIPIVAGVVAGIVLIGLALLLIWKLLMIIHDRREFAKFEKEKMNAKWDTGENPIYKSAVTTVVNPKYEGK

“His-tagged talin2(1-449) WT (from UniProt Q9Y4G6 1-449) (domain or fragment)” yielded a Kd of 350 nM.
The figure for “His-tagged talin1(1-446) WT (from UniProt Q9Y490 1-446) (domain or fragment)” is 880 nM.
